# Test results: patent publication US20260224761A1, “DUAL LABELLED COMPOUNDS TARGETING THE PROSTATE SPECIFIC MEMBRANE ANTIGEN” (priority 2023, published 2026)
# Like-named read-outs stand apart in the source and are kept apart here. Where a SMILES comes first, the peptide text is derived from it. [ ]: non-standard residue; d: D form. The star is where a group is joined. X1 = O=C(O)CC[C@H](NC(=O)N[C@@H](CCCCNC(=O)CCCCCCC(=O)*)C(=O)O)C(=O)O; d2Nal = N[C@H](Cc1ccc2ccccc2c1)C(=O)O; Mercaptoacetyl = O=C(CS)*
# Assays:
# PSMA [1] = target: T1, PSMA (Homo sapiens, UniProt Q04609); test: Competitive binding experiments (IC50) using PSMA-expressing LNCaP cells and ([125I]I-BA)EuK as standard radioligand
# T1 construct: using PSMA-expressing LNCaP cells and ([^125I]I-BA)EuK as standard radioligand; endogenous in cells; host or cells: LNCaP cells
# T1 sequence (Q04609 whole entry): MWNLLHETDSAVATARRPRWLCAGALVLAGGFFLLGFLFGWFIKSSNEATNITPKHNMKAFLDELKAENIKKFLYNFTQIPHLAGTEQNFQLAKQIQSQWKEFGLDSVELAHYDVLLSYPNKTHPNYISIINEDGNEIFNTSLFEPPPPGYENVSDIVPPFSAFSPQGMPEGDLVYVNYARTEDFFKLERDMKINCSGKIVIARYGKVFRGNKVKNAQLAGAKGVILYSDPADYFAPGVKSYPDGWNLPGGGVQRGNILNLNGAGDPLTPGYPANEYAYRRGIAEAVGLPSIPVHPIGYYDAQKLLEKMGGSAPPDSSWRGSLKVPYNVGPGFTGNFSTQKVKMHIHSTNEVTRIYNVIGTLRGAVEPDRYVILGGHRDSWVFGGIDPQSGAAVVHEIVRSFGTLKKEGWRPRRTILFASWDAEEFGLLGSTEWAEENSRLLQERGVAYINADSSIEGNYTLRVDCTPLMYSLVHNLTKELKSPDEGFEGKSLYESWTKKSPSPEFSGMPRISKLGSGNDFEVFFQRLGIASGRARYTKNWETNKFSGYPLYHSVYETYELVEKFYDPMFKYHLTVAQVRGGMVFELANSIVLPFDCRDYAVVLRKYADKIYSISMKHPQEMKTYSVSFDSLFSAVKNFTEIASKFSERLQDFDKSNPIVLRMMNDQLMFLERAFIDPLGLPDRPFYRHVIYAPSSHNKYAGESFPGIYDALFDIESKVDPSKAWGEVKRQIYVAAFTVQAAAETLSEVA
# Procedure: Competitive binding experiments (IC50) were carried out in accordance with an established protocol ([…]. et al., Eur. J. Nuc. Mol. Med. Imaging Res., 2014, 4, 63) using PSMA-expressing LNCaP cells and ([^125I]I-BA)EuK as standard radioligand.
# PSMA [2] = target: T1, PSMA; conditions: LNCaP cells; reference compounds, assayed under identical conditions (literature cited in table title); # = free mas3-chelator; cited from earlier work
# [3] = Lipophilicity, modified shake-flask method; type: physicochemical
# Procedure: The lipophilicity of [^99mTc]PSMA-HSG, [^99mTc]EuK(SO3)Cy5-mas3 and [^99mTc]EuK(SO3)Cy5(SO3)-mas3 was determined via a modified shake-flask method as described ([…]. et al., Eur. J. Nuc. Mol. Med. Imaging Res., 2014, 4, 63).
# Plasma protein binding = type: in vitro ADME; conditions: plasma
# Procedure: Quantum yield, molar extinction coefficient and serum protein binding experiments were performed according to previously published procedures (Hensbergen A. W. et al., Dyes and Pigments, 2018, 152, 19-28).
# [4] = Biodistribution in LNCaP xenograft bearing NSG mice; type: in vivo; conditions: NSG, mouse, in vivo, iv, total radioactivity; for tissue uptake at 2 h: 1 nmol/animal; for tissue uptake at 6 h: 0.1 nmol/animal
# Procedure: (§1) The biodistribution of [^99mTc]PSMA-HSG, [^99mTc]EuK(SO3)Cy5-mas3 and [^99mTc]EuK(SO3)Cy5(SO3)-mas3 was investigated in LNCaP xenograft bearing NSG mice. […] (0.1 nmol-cohort), respectively.
# (§2) To assess the influence of the different ligand designs of [^99mTc]PSMA-HSG and [^99mTc]mas3-(SO3)Cy5(SO3)—EuK on in vivo PSMA-targeting and general pharmacokinetics, their in vivo biodistribution was investigated in LNCaP xenograft bearing NSG mice in two different experimental settings: • A) at 2 h p.i. using a ligand dose of 1 nmol/animal. These conditions were chosen to allow comparability of the data from this study (Table 3) with previous results in a different tumor model (Hensbergen, A. W. et al., J. Nucl. Med., 2020, 61, 234-241). Here, [^99mTc]mas3-Cy5(SO3)—EuK was additionally included as an internal reference to establish the “missing link” between studies. • B) at 6 h p.i. using a ligand dose of 0.1 nmol/animal (Table 4). The latter settings were adapted to a timeline and dosing with more similarity to the clinical situation (surgery at a later time point, microdosing principle). Of note, however, a ligand amount of 0.1 nmol/mouse (extrapolation: 280 nmol/70 kg patient) still exceeds the potentially applicable clinical dose (48 nmol/70 kg patient for a compound with a molecular weight of −2100 g/mol). Nevertheless, it represents a dose level at which significant competition effects between unlabeled precursor and radioligand for PSMA binding sites in tumor tissue are not probable (Eder A. C. et al., J. Nucl. Med., 2021, 62, 1461-1467; Kalidindi T. M. et al., Eur. J. Nucl. Med. Mol. Imaging, 2021, 48, 2642-2651).
# [5] = tested on: LNCaP xenograft bearing NSG mice; test: as above; type: in vivo
# Procedure: as §1, §2
# [6] = tested on: PC346C orthotopic xenografts in Balb/c nude mice; conditions: 1 nmol ligand, 2 h p.i.; cited from earlier work
smiles,measurement,setting,value
"CC(=O)SCC(=O)N[C@H](CO)C(=O)N[C@H](CO)C(=O)N[C@H](CO)C(=O)N[C@H](CCCCNC(=O)CCCCCN1\C(=C/C=C/C=C/C2=[N+](C)c3ccc(S(=O)(=O)O)cc3C2(C)C)C(C)(C)c2cc(S(=O)(=O)O)ccc21)C(=O)N[C@H](Cc1ccc(O)cc1)C(=O)N[C@H](Cc1ccc2ccccc2c1)C(=O)N[C@H](CCCCNC(=O)CCCCCCC(=O)NCCCC[C@H](NC(=O)N[C@@H](CCC(=O)O)C(=O)O)C(=O)O)C(=O)O [PSMA-HSG, Ac-mas3-k(Sulfo-Cy5)-γ-nal-k-Sub-EuK]",IC50,"PSMA [1]; LNCaP cells, free mas3-chelator, novel compounds",29.6 ± 5.6 nM
O=C(O)CC[C@H](NC(=O)N[C@@H](CCCCNC(=O)CCCCCCC(=O)NCCCC[C@@H](NC(=O)[C@@H](Cc1ccc2ccccc2c1)NC(=O)[C@@H](Cc1ccc(O)cc1)NC(=O)[C@H](CO)NC(=O)[C@H](CO)NC(=O)[C@H](CO)NC(=O)CS)C(=O)O)C(=O)O)C(=O)O [PSMA-I&S] (Mercaptoacetyl-SSS[dY][d2Nal][dK](X1)-OH),IC50,PSMA [2],39.7 ± 1.2 nM
"CC1(C)C(/C=C/C=C/C=C2/N(CCCCNC(=O)CCCCCNC(=O)[C@@H](CO)NC(=O)[C@@H](CO)NC(=O)[C@@H](CO)NC(=O)CS)c3ccc(S(=O)(=O)O)cc3C2(C)C)=[N+](CCCCCC(=O)NCCCC[C@H](NC(=O)N[C@@H](CCC(=O)O)C(=O)O)C(=O)O)c2ccc(S(=O)(=O)[O-])cc21 [[^99mTc]mas3-(SO3)Cy5(SO3)-EuK, metal not drawn]",lower PSMA-affinity compared to [99mTc]PSMA-HSG,PSMA [1],4.5 fold
same,logP,[3],-2.99
same,fraction unbound,Plasma protein binding; Plasma Protein Binding (%),0.256
same,tissue uptake at 2 h,[4]; Biodistribution: LNCaP tumor,3.5 ± 1.1 %ID/g
same,tissue uptake at 2 h,[4]; Biodistribution: blood,0.7 ± 0.1 %ID/g
same,tissue uptake at 2 h,[4]; Biodistribution: heart,0.3 ± 0.1 %ID/g
same,tissue uptake at 2 h,[4]; Biodistribution: intestines,4.2 ± 0.4 %ID/g
same,tissue uptake at 2 h,[4]; Biodistribution: kidneys,59.2 ± 14.4 %ID/g
same,tissue uptake at 2 h,[4]; Biodistribution: liver,1 ± 0.4 %ID/g
same,tissue uptake at 2 h,[4]; Biodistribution: lung,1.1 ± 0.2 %ID/g
same,tissue uptake at 2 h,[4]; Biodistribution: muscle,0.2 ± 0.03 %ID/g
same,tissue uptake at 2 h,[4]; Biodistribution: pancreas,0.3 ± 0.1 %ID/g
same,tissue uptake at 2 h,[4]; Biodistribution: salivary glands,3.1 ± 0.5 %ID/g
same,tissue uptake at 2 h,[4]; Biodistribution: spleen,4.3 ± 1.3 %ID/g
same,tissue uptake at 2 h,[4]; Biodistribution: stomach,0.6 ± 0.1 %ID/g
"CC1(C)C(/C=C/C=C/C=C2/N(CCCCNC(=O)CCCCNC(=O)[C@@H](CO)NC(=O)[C@@H](CO)NC(=O)[C@@H](CO)NC(=O)CS)c3ccccc3C2(C)C)=[N+](CCCCCC(=O)NCCCC[C@H](NC(=O)N[C@@H](CCC(=O)O)C(=O)O)C(=O)O)c2ccc(S(=O)(=O)[O-])cc21 [[^99mTc]mas3-Cy5(SO3)-EuK, metal not drawn]",logP,"[3]; radiolabelled tracer, shake-flask, read-out: lipophilicity [log POW]",-1.94
same,fraction unbound,"Plasma protein binding; radiolabelled tracer, four tracers compared in this study, read-out: Plasma Protein Binding (%) (converted)",0.035
same,tissue uptake at 6 h,"[4]; 6 h p.i., read-out: Biodistribution: LNCaP tumor",8.1 ± 1.4 %ID/g
same,tissue uptake at 6 h,"[4]; 6 h p.i., read-out: Biodistribution: blood",0.7 ± 0.1 %ID/g
same,tissue uptake at 6 h,"[4]; 6 h p.i., read-out: Biodistribution: heart",0.3 ± 0.1 %ID/g
same,tissue uptake at 6 h,"[4]; 6 h p.i., read-out: Biodistribution: intestines",9.7 ± 1.1 %ID/g
same,tissue uptake at 6 h,"[4]; 6 h p.i., read-out: Biodistribution: kidneys",70 ± 22 %ID/g
same,tissue uptake at 6 h,"[4]; 6 h p.i., read-out: Biodistribution: liver",1.7 ± 0.3 %ID/g
same,tissue uptake at 6 h,"[4]; 6 h p.i., read-out: Biodistribution: lung",0.8 ± 0.2 %ID/g
same,tissue uptake at 6 h,"[4]; 6 h p.i., read-out: Biodistribution: muscle",0.2 ± 0.1 %ID/g
same,tissue uptake at 6 h,"[4]; 6 h p.i., read-out: Biodistribution: pancreas",0.3 ± 0.1 %ID/g
same,tissue uptake at 6 h,"[4]; 6 h p.i., read-out: Biodistribution: salivary glands",8.9 ± 2.1 %ID/g
same,tissue uptake at 6 h,"[4]; 6 h p.i., read-out: Biodistribution: spleen",1.9 ± 0.6 %ID/g
same,tissue uptake at 6 h,"[4]; 6 h p.i., read-out: Biodistribution: stomach",1.4 ± 0.3 %ID/g
same,tissue to tissue ratio at 6 h,"[4]; 0.1 nmol/mouse, 6 h p.i., 0.1 nmol, read-out: tumor/kidney ratio",0.12 ± 0.04
same,tissue uptake at 2 h,"[4]; 2 h p.i., read-out: Biodistribution: LNCaP tumor",6.6 ± 2.8 %ID/g
same,tissue uptake at 2 h,"[4]; 2 h p.i., read-out: Biodistribution: blood",0.9 ± 0.1 %ID/g
same,tissue uptake at 2 h,"[4]; 2 h p.i., read-out: Biodistribution: heart",0.4 ± 0.1 %ID/g
same,tissue uptake at 2 h,"[4]; 2 h p.i., read-out: Biodistribution: intestines",6.3 ± 2.5 %ID/g
same,tissue uptake at 2 h,"[4]; 2 h p.i., read-out: Biodistribution: kidneys",21 ± 4.2 %ID/g
same,tissue uptake at 2 h,"[4]; 2 h p.i., read-out: Biodistribution: liver",1.3 ± 0.5 %ID/g
same,tissue uptake at 2 h,"[4]; 2 h p.i., read-out: Biodistribution: lung",1.1 ± 0.1 %ID/g
same,tissue uptake at 2 h,"[4]; 2 h p.i., read-out: Biodistribution: muscle",0.2 ± 0.03 %ID/g
same,tissue uptake at 2 h,"[4]; 2 h p.i., read-out: Biodistribution: pancreas",0.3 ± 0.1 %ID/g
same,tissue uptake at 2 h,"[4]; 2 h p.i., read-out: Biodistribution: salivary glands",1.7 ± 0.3 %ID/g
same,tissue uptake at 2 h,"[4]; 2 h p.i., read-out: Biodistribution: spleen",1.9 ± 0.5 %ID/g
same,tissue uptake at 2 h,"[4]; 2 h p.i., read-out: Biodistribution: stomach",0.5 ± 0.1 %ID/g
same,tissue to tissue ratio at 2 h,"[4]; 1 nmol/mouse, 2 h p.i., 1 nmol, read-out: tumor/kidney ratio",0.31 ± 0.15
same,kidney accumulation compared to both ligands containing disulfo-Cy5,"[5]; 2 h p.i., 1 nmol/animal",threefold lower
same,increase of tumor accumulation over time,[5]; 6 h p.i./0.1 nmol versus 2 h p.i./1 nmol,only slightly increased
same,absolute intestinal uptake,[6],1.61±0.29 % iD/g
same,tumor accumulation,[6],15.2±2.9 % iD/g
